Test results as given in PMC12077208 (2025).

Target: nuclear translocation factor 2-like (NTF2L) domain of human G3BP1 (human, UniProt Q13283-1 1-138)
Assay: ITC

Chain of nuclear translocation factor 2-like (NTF2L) domain of human G3BP1 (Q13283 other isoform, or with tags, fused parts or gaps): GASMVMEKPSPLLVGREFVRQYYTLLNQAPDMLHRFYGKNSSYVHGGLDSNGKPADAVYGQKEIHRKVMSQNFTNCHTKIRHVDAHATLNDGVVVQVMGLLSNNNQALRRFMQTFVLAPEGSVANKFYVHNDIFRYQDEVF

| Binder | Kd [µM] |
| --- | --- |
| ITFGDFNDGEIESLSSELLTFGDFLP [CHIKV-26 peptide (residues Ile473 to Pro498 of CHIKV nsP3, without the α2 region)] | 7.8 |
| CHIKV nsP3 peptide CHIKV-43 (residues Glu469-Thr511) (peptide) GPLGSETFPITFGDFNDGEIESLSSELLTFGDFLPGEVDDLTDSDWSTHHHHHH | 0.078 |
